From PMC6350010 come the findings set out here.

The test addresses Wild-type Aβ (1–40) peptide. The test is described as follows: single-molecule fluorescence burst analysis.

Atto655-Aβ40 (peptide): the mean of the oligomer size distribution, μ1 (relative photon number N phot,rel) is 7.4 N¯phot,mon.
